# Laboratory results taken from the DeepSol protein solubility set.
# Test: soluble on expression in E. coli; label from the status in PepcDB or PDB records
row,Sequence,soluble on expression in E. coli
1,MPLQQTLGVDCQTAADAGGEPHCFAGPVRERRMDSVLVIGGGRFIGRHTVTEFRDAGYDVTMLTRGRRQNPFTNAEVAHIEGDRRERDTLETARERVNPDVVVDCVAYFPEDVRVATDVFADVGAYVYISSGAAYGAERTPKREGETPLAGCTAEQATTDSAETYGPRKAEGDREVFAAAEDGVQAMSVRPTVVYGPYDYTERFAYWVDRVAEYDRVVVPSDGLSLWQMAYVEDVASALRLVAERGTAGEAYNVGDEHAPTLREWVDLLARVHETDVETIGVGERELRAAGLAPDDFPIYRDSPHLLSTAKLRGLGWSSTPHETALAVTVAEHLENDRTGREFGPDRDTEAALIDRLTE,not soluble
2,MPLRILHTSDWHLGRSLFGRSRLHEFEAFLDWLAGTVESRGIELLVVAGDIFDTTTPGNATQKLYYQFLNRIALTPGSPCRHVVITSGNHDSPTFLDAPKELLRAFDVHVLGATTGDPADEVRLLRDRQGSPEAIVCAVPFLRDRDIRTVEPGESLEDKIRKLSDGVSLHYAEVARIAAERRRSLGADIPVIAMGHLFTAGCVTVEEDGVREIYAGALSIVCSTAFPPVFDYVALGHMHVPQRVDKTEHMRYCGSPIPMGFGEAKQQKLVLQVDFEGREPTVTEIEVPCFQPLERLAGSLDELSAAIAALRSAGSNAWLEIDYRGDEAPATVQEAMEQAVAGSLLEIRRIRNNRPLQQALRHSAANETLQQLDPEAVFNRCLEAYGTDESLRPALVESYREVLRSIREEDVMAEKEGKS,not soluble
3,MPLRQDLTPVVITVTGADRHGVTAATFRVLSANNVQILDVEQSKFRGFLSIAVYAGIKASMIDSVEQGLRDTLSVHGQSVSLSVESRTEVSRPRSTHVVVILGNPVGAEDIWKIGQTMADFGANIDGIRGISDYPVTGLELRVTVADPAPGAAEPLRKALAALTTELGVDIVIERAGLQR,not soluble
4,MPMFAWKGKRDKSMKVSVVIPVHNEASTLSKVLAEVKKLEPYEIIIVDNGSTDGTKEIALQHHCRVIYYNHSLGNDVGRAIGAREAKGEIVLFLDGDIVMKSEELYPFIKGIQQGHQIVLNNLTWSVYLKVRPHYTTVGKYMLNRYLNKKEFVVGSLIAIPHAISREVIEKLGWWNLADPALFQAMAMSRGVDISDMASVDVIYTNKVRPVHTGTSPDSPYPKATSRIMGDHLRALQYITETYGKRGGFSEGNRDREFIGKYKPVVLKKEKAKYSAIIPVSEEKTTIRSVIQEVKKAGVDEIIIVANGADIETIKQVNLENVIVVEVTKTLGNNVARAIGAMHATAEICLFVDGDYAIPAKKLVPFLRAIEDGSDMALNDLQCLLDIFHPADPISMGKYFVNLVAKRPDLWNNSLTAVPHAIRKKVIEKIGYDSLIIPPLAQMKAILEGFSITTVEFVDVIKTNRVRPEQHEFVNGRISAFDRIFGDQLEAIAYLLQHTDERGGFTDGDRDREIIQQLRREEENTNEY,not soluble
5,MPMSSLPAAILSHMTAINNVPPPPLHSIPNLKKSKHINYGQLNALCHIRGQHSRSMSNILSAHDTFMKQYPKVFLHQKPRLPKLFKQEEQRELNEGKEESQHQQPDDSNNIAVHVQRAHGGHILYRPKRATEKFEEFLAILKKLPIHRTPYEHKTVWKFLKTIPDLTFQLNDKHLKTLSKTVFSETWLKGSTVVANDGFYVILKGLARPQTNVYKNLIEGSDSPDSFISQSFHSFIWSEEFKNSTLAEMYLPSYDSMLSKWSTFGTLEVMPQNESETQMFSVVTEDDCEILKIPAKGYAKIKEEKIKLENMQKLKLIRMCPYYEEWPTLSIYELIALLKWKKFPPGHVIVESGNIISFVGYINSGCCNIYRSIIGFVKLRSNKVKRSQKLVYMGKLKEKESFGEISVLLQVPFTCTIITKKEVEMAIIEDKDLFVA,soluble
6,MPMVRNPMFLRMLGGLALALMLSAGRVATADTGTEAARAVVDKLNGALIDVMRNAKQLGYQGRYKKLDPIVREVFQFEAVAQIALGAHWKTLNDDQKREFVKKLTELSIATYAAQFNSYAGEQFQYDSDQAVKPDRVVVRYKMVAPKETPVKFDYMVNQFDGKWEIINIVVDGISDLALKKAQYTSVIDREGFDVLMSKLTQKITDYANNENNSKSLEHHHHHH,soluble
7,MPNDLPLLPPKNQHKHLDKTMISLPSDFRHLAHVGPMGSSEIENLRTSDNVIDTVNESSYYIRPSSSNSTLRSQRKEKDRVGLDDAFPSASKSEEEVEVVRGYENQPTSHQYINIAPPRPSKKNYKAPAPPTPPPQNSKPNLIFNAQDDEEETSEISEQPVVFRSISHTSNISTHIAPPPKIQTADRIVAPKPNSLVIERPGDLGGAFSFGLDDCIPIVKSTPPLNTLSPLHRPLAIPKNQEETPILSPASPPDDSNYMSTIRSTSVQGRKILDELDDWLDDLDDLDRDQLSTISTDESGYPTLALEKDRAFMKHLVEKYELGVAPETIRLRKKKGPAPKAPSLPPDLSSPTFQAPGFIPAFSARPVSMPPNRPPPSYEAPSFDAPEAPGTVLINGRALTKQNALDLRSSDESGVPPAIARFLYDKRIKSATMPMSIGRMTSSSGNTDVSTTSSRSNADTVSSILSTVGEDDDVEVLKRDREVEEEFVPPVPKPRSRKTVSTEPLKEEEEENVEEEIKGENVIGEEFQVVGDTKINDEQEDRVEATKDKINDAFIMLPPPSAAAMIPSDSESEDDDNFIITRF,not soluble
8,MPPADGTSQWLRKTVDSAAVILFSKTTCPYCKKVKDVLAEAKIKHATIELDQLSNGSAIQKCLASFSKIETVPQMFVRGKFIGDSQTVLKYYSNDELAGIVNESKYDYDLIVIGGGSGGLAAGKEAAKYGAKTAVLDYVEPTPIGTTWGLGGTCVNVGCIPKKLMHQAGLLSHALEDAEHFGWSLDRSKISHNWSTMVEGVQSHIGSLNWGYKVALRDNQVTYLNAKGRLISPHEVQITDKNQKVSTITGNKIILATGERPKYPEIPGAVEYGITSDDLFSLPYFPGKTLVIGASYVALECAGFLASLGGDVTVMVRSILLRGFDQQMAEKVGDYMENHGVKFAKLCVPDEIKQLKVVDTENNKPGLLLVKGHYTDGKKFEEEFETVIFAVGREPQLSKVLCETVGVKLDKNGRVVCTDDEQTTVSNVYAIGDINAGKPQLTPVAIQAGRYLARRLFAGATELTDYSNVATTVFTPLEYGACGLSEEDAIEKYGDKDIEVYHSNFKPLEWTVAHREDNVCYMKLVCRKSDNMRVLGLHVLGPNAGEITQGYAVAIKMGATKADFDRTIGIHPTCSETFTTLHVTKKSGVSPIVSGCCG,soluble
9,MPPKQQLSKAAKAAAALAGGKKSKKKWSKKSMKDRAQHAVILDQEKYDRILKEVPTYRYVSVSVLVDRLKIGGSLARIALRHLEKEGIIKPISKHSKQAIYTRATASE,soluble
10,MPPLPLIGMLLGTASTMIKSSSGAAAHASGASSAPSGDAAPTAPFAQTLKRNVQTQRQTNAGAGAGAPNAGNATNAATSGTANASTTSSASEPATTNAGNTKASGKPDDQDDDKNATQSASADAAAALAAAASLQAQLQARPDAQAAQAAAPQAGASDAAHPPTTLATNTAAAGDADTSALAGAQQPVGEALNAALSKLTGAGPAGAAATQRAQPAGRNDGAPTPLAANGPFDKMLAGAKAPAAPATLTDASGTNPAVSTAAQPAASGAIAALQDAADSARATLAASSAPAALQQAAPAALAANANAAAATAAPSLAPPVGTPDWTEALSQKVVFLSNAHQQSAELTLNPPDLGPLQVVLRVAENHAHALFVSQHAQVRDAVEAALPKLREAMEAGGLGLGSASVSDGGFASAQQQQTPQRQSSDGSAARRASGAPTADAALGEVSAVSSGGVTRRSVGMVDTFA,not soluble
11,MPPLRQFLNRLLALTIRMQNVIFERFELLLSQQIETAIANGIFEAGVETLRAERFTIESCESVYTHPDTGSVTNYLKVEQVQRNNIRTAVEMLEFAAKYQGQLMVNQKSSNAAVSIPTHSIFDCDGGVVPRVLLVRPQKETRVPVEQLESSTWQQVSAEEFVTAWSREVDELPRFTTDYLHLVTGILLPIWKILPQKNSRVFRLQTSDGQKILGRVVHASDIQTVTEQLGLKNKLEHHHHHH,soluble
12,MPPMRSKATQWLLSVWGLMDPLYYACSRLEYVGGKENGCRSIFRVRLLRYKGETIHLSDGTTIAANDWLLKIHLHNVRLLCELMQYRSDIQKGRYIFEQVKAGLPHVAHHLYHHEQSSSIKGIIGVTMLNKGCERLGFDVIDIANSFYRWFKMASHWPMMTVAQHRLVPLVRPPKYLVMSKEKLFSLYGCHLIH,not soluble
13,MPPNANSVGGPKKKNKKNHQRPQQQHQQTQPQPLPEEEQPENPIKKDPKPEVLEEVVEKNREEDKEKVEETVAPTIEKEKNISGDLLDFSSSDKSSLSSRPDSPEEDEDAVPVVNRTTTSPPTSPPSQTAVEQDSLQAEEMLVDMSLDDAPAAPPRKPHQRSAPPPIPSMNTIMTKPRTNSVSYIKGQVVRQSAVEQQTLANQVVDLVAMGMSKGQTQSSQITAEKAEWVQLTSVEKAGEPNERLEVLIVGLCRGYQIWTMSQSGEFEEVLSERQGPVRALKVLPNNLKLRGKKDSFADSRPLIAMVDASSHHPDRQYCSVTIISLLTGREVHKIKFEEPVCAVNVSDQFLVVSLANMAYAYDILTFNEVRTIRTAPSCENSPPALSLSCQLLAYADTSLDLNLQSSGGLAAEVEATSSEKYTDHIYTAMSYFSRSVKTISESVGAGSGSSTKANQPQGVITVLNLAVSGEDESDGVMCHYVAHVDPISYIAFSPDQRLVLSADANANVFNIFLLMPHATSSSLAAVQHLYKLNRGSTPAKVVSTAFSEDCRWLAITTNHATTHVFAVCPFGGKPNQRTHGDTFVNKESRFHRSAGLTDAADVTASIGPSKHRAMADSCSYTKEHPIAVNSPTLAKTNGNSRVGPFPPPLLLVATEKIKDSRYTKEDLSAWAADMTSFSYPAAQASSSPAVAARRRLEVSRMSVMFRMKSYNSTTSTKTAKTTKMLMSMSLVIAKVDPAQGVIVTQHDIKSLRKEGETNMEASPQISVAPVGGWILQRTKNNADMHAPMPSASPLMAFATVETVPAKRIGDEDVWTPHVETRTYLPPHRWIWQGPQFELFEYREDDQPSLMSPGNKGSNASFKSIPVLVGSEAVNITMKTIPADATRIECGSYTSANSYSIDQGSDQPVIGGYSSATNGDYIASIADAMRDISSDDDSTKKKSPKNDDLIEEFFDTESSTPFARNGSGSSSSTGATGGKSLKKKKTPPASAPLPTSSTKSSQKDKKVQNGRERSKDSDDFGTFDMDDI,not soluble
14,MPQNQSDRLKPKGSGDGPLGTALGRGAGVASDLWRRIRTRALSAIGPEAEAQLYEVHKEWLGDLSGKKVLEIGGGSPLSPWLADTARTYHAVSADPAELEALKVRLGEGRTARLIEADPMSGAFRETGYDVIYLHSVLHRMADRGPFLDRLLKKLAIEGRVVTTDPADGGALTRLVRTIDRPFRAESLPDHPVTEELKAELAERFYLINCVAPFRLGKAALVLGALHPELGRRVSERLIAADLKDRAAFNRLNASLQVSFLLGAPD,not soluble
15,MPREFKSFGSTEKSLLSKGHGEPSYSEIYAEPENFLEIEVHNPKTHIPNGMDSKGMFTDYEIICRTNLPSFHKRVSKVRRRYSDFEFFRKCLIKEISMLNHPKVMVPHLPGKILLSNRFSNEVIEERRQGLNTWMQSVAGHPLLQSGSKVLVRFIEAEKFVG,soluble
